Laboratory results published in patent US20050191706A1.

Tests used:
Lβ11H, Dβ57A = experiment: flow; conditions: chains peptide; modification not given
Lβ26F = experiment: flow; conditions: chains peptide; modification not given

## PKYVKQNTLKLAT [bio-HA308-316]
Lβ11H, Dβ57A
  Kd: 8.56 µM
Lβ26F
  Kd: 3.72 µM
